Assay results taken from article PMC5497066.

Tests used:
[1] = biological target: C-terminal truncation mutant of tetradecamer GroEL, Δ526 (E. coli) (UniProt P0A6F5); assay: cryo-EM structure; acid-urea denatured PepQ (7 μM final) titrated into GroEL or Δ526 (8 μM tetradecamers) in TKM buffer, no nucleotide, room temperature 5 min; asymmetric 3D classification and refinement
[2] = biological target: PepQ-24TMR (E. coli) (UniProt P21165); assay: single-molecule two-colour co-incidence detection; PepQ-24OG and PepQ-24TMR 1:1, denatured, refolded at 100 nM total monomer with GroEL, GroES and ATP at 23 °C, then diluted 1,000-fold to 100 pM; cross-correlation of fluorescence bursts
[3] = biological target: PepQ-24TMR (E. coli) (UniProt P21165); assay: single-molecule two-colour co-incidence detection; PepQ-24OG and PepQ-24TMR 1:1, denatured in acid-urea, spontaneous folding at 2 nM monomer in TKM buffer with 0.1 mg ml^-1 BSA, 23 °C, 10 min, then diluted 20-fold to 100 pM
[4] = biological target: C-terminal truncation mutant of tetradecamer GroEL, Δ526 (E. coli) (UniProt P0A6F5)

For “C-terminal truncation mutant of tetradecamer GroEL, Δ526 (from UniProt P0A6F5 2-526) (domain or fragment)”, the stoichiometry N [1] was 14.

For “PepQ-24OG (from UniProt P21165 1-443) (enzyme)”, the coincident fraction [2] was 10%, the co-incidence [3] was < 1% and the co-incidence (most likely overlap) [3] was 0.75%.

“wild type E. coli PepQ (from UniProt P21165 1-443) (enzyme)” gave an observed folding rate constant of PepQ by recovery of enzymatic activity, bound to Δ526 (200 nM) and refolded with GroES (400 nM) and ATP (2 mM) [4] of 0.106 min⁻¹.
